These results are taken from patent US20210018508A1 (PIERRE FABRE MEDICAMENT, published 2021).

For this test, the target named is T1, recombinant human insulin receptor (human, UniProt P06213-2 28-944, limits assumed).
T1 construct: also called rhIR; human IR
Briefly: direct ELISA, rhIR coated at 1 µg/ml, hybridoma supernatant, anti-mouse IgG-HRP detection. The method, then:
Further characterizations of the 816C12 antibody were then performed using hybridoma supernatant such as rhIGF-1R or rmIGF-1R or rhIR ELISA. In all direct ELISAs, proteins of interest were immobilized (1 μg/ml) to the bottom of each well. After saturation, hybridoma supernatants were added to the wells. After a 1-hour incubation period and a washing step, a solution of goat anti-mouse IgG—HRP labelled polyclonal antibody was used for detection, prior to the addition of the TMB substrate. The reaction was stopped with a 1M […] solution before reading the OD with a spectrophotometer at a 450 nm wavelength.
A general note: In an ELISA, binding on a coated surface is turned into a signal by an enzyme label.

T1 sequence (P06213 other isoform, or with tags, fused parts or gaps limits assumed): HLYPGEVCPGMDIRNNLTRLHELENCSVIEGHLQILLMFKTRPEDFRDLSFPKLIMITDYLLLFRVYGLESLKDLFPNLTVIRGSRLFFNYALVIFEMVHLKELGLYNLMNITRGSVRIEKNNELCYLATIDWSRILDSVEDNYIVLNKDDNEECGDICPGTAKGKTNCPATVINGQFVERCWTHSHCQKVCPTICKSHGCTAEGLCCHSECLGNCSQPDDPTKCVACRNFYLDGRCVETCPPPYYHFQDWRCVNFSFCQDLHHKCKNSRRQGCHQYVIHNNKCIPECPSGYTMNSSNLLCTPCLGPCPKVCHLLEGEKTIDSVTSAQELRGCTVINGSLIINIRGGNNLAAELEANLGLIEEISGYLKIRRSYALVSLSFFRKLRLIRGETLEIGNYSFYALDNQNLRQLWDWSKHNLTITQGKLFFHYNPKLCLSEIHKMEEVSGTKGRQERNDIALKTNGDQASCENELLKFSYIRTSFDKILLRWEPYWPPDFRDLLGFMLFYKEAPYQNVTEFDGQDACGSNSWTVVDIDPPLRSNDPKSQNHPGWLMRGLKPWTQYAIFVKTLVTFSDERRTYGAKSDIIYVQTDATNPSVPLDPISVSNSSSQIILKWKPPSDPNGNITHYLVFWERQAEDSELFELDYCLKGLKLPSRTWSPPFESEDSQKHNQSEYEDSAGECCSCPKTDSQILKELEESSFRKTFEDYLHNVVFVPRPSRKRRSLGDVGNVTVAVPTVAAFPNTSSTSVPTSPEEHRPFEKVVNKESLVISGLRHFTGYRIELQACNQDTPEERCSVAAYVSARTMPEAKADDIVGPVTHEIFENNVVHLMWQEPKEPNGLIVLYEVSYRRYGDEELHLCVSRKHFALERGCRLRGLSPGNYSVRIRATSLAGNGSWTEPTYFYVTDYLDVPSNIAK

B1: 816C12 anti-IGF-1R monoclonal antibody (antibody, V domains shown)
VH: EVQLQQSGPELVKPGASVKMSCKASGHTFTSYVLHWMKRKPGQGLEWIGYINPHNDVTKYNENFKGKATLTSDKYSSTVYMEVSSLTSEDSAVYYCVSTAYYGNGRYFDVWGAGTTVTVSS
VL: DIQMTQTTSSLSASLGDRVTISCRASQDINNYLNWYQQKPDGTVKLLIYYTSRLHSGVSSRFSGSGSGTDYSLTISNLEQEDIATYFCQQGNTLPWTFGGGTKLEIK
notes: Murine monoclonal antibody from a Balb/C hybridoma; It was used as hybridoma supernatant in the ELISAs and at 5 ug/ml in IHC; also called I-4894; antibody secreted by hybridoma CNCM I-4894
Take B1: the binding result is “no binding (tested: 5 µg/ml)”.
